± gives the uncertainty stated by the source.
B1: Pyruvate dehydrogenase protein X component, mitochondrial, residues 181 to 227; numbered along this chain, O00330 (parent)
chain: RFRLSPAARNILEKHSLDASQGTATGPRGIFTKEDALKLVQLKQTGK
B2: Chromodomain-helicase-DNA-binding protein 5, residues 411 to 463; numbered along this chain, Q8TDI0 (parent)
chain: EEDDHMEFCRVCKDGGELLCCDACPSSYHLHCLNPPLPEIPNGEWLCPRCTCP

Variants of: B1
Assay: abundance fitness (aPCA) (normalised: wild type 0, dead -1); higher = more abundant; growth selection in yeast, the domain comes from the species named
Conditions: Homo sapiens

Variant	abundance fitness
D35I	-0.956 ± 0.47
D35G	-0.565 ± 0.079
D35A	-0.637 ± 0.051
D35F	-1.25 ± 0.46
D35Q	-0.818 ± 0.1
D35R	-0.847 ± 0.093
D35L	-0.76 ± 0.12
D35N	-0.926 ± 0.39
D35C	-1.06 ± 0.19
D35E	-0.439 ± 0.2
D35Y	-0.865 ± 0.19
D35W	-0.814 ± 0.083
D35T	-0.936 ± 0.21
D35K	-0.828 ± 0.14
D35V	-1 ± 0.1
L37P	-0.541 ± 0.071
L37M	-0.183 ± 0.061
L37I	-0.369 ± 0.12
L37T	-0.072 ± 0.099
L37S	-0.286 ± 0.078
L37G	-0.233 ± 0.05
L37W	-0.293 ± 0.054
L37D	0.035 ± 0.14
L37Q	-0.545 ± 0.14
L37C	-0.388 ± 0.079
L37H	-0.544 ± 0.17

Variant	abundance fitness
L37E	0.278 ± 0.09
L37K	-0.088 ± 0.08
L37R	-0.377 ± 0.07
L37V	-0.165 ± 0.068
L37F	-0.402 ± 0.094
L37A	-0.55 ± 0.1
L37Y	-0.383 ± 0.21
L39A	-0.319 ± 0.067
L39D	-0.121 ± 0.1
L39N	0.065 ± 0.094
L39V	-0.315 ± 0.074
L39T	-0.505 ± 0.16
L39S	-0.127 ± 0.065
L39K	-0.545 ± 0.21
L39P	-0.348 ± 0.086
L39C	-0.694 ± 0.14
L39F	-0.746 ± 0.18
L39W	-0.731 ± 0.098
L39E	-0.28 ± 0.047
L39Q	-0.619 ± 0.21
L39G	-0.222 ± 0.062
L39R	-0.484 ± 0.12
L39M	-0.089 ± 0.1
L39H	-0.271 ± 0.066
L39Y	-0.874 ± 0.17
K43A	-0.083 ± 0.084

Variant	abundance fitness
K43E	-0.395 ± 0.1
K43Q	-0.057 ± 0.05
K43R	-0.245 ± 0.045
K43C	-0.267 ± 0.15
K43V	-0.28 ± 0.057
K43S	0.013 ± 0.064
K43H	0.299 ± 0.14
K43L	-0.575 ± 0.059
K43G	-0.141 ± 0.054
K43D	-0.227 ± 0.14
K43W	-0.608 ± 0.15
K43F	-0.305 ± 0.084
K43Y	-0.193 ± 0.091
K43P	-0.477 ± 0.13
E34C	-0.437 ± 0.17
E34V	-0.515 ± 0.051
E34F	-0.388 ± 0.1
E34M	-0.536 ± 0.096
E34D	-0.058 ± 0.047
E34P	-0.714 ± 0.13
E34N	-0.811 ± 0.27
E34R	-0.329 ± 0.05
E34G	-0.323 ± 0.045
E34S	-0.178 ± 0.056
E34I	-0.615 ± 0.29
E34Q	0.054 ± 0.08

Variant	abundance fitness
E34T	-0.299 ± 0.13
E34H	-0.095 ± 0.082
E34L	-0.443 ± 0.061
E34A	-0.155 ± 0.065
E34W	-0.334 ± 0.12
Q44L	-0.131 ± 0.053
Q44V	-0.133 ± 0.044
Q44T	-0.451 ± 0.13
Q44R	-0.14 ± 0.061
Q44A	-0.008 ± 0.045
Q44W	-0.641 ± 0.14
Q44D	-0.262 ± 0.12
Q44S	-0.068 ± 0.082
Q44N	-0.337 ± 0.14
Q44H	-0.152 ± 0.095
Q44Y	-0.028 ± 0.11
Q44E	0.038 ± 0.076
Q44I	0.039 ± 0.093
Q44F	-0.328 ± 0.049
Q44P	-0.516 ± 0.093
Q44M	-0.389 ± 0.12
Q44K	0.114 ± 0.094
G46Q	0.249 ± 0.14
G46Y	0.219 ± 0.18
G46E	0.122 ± 0.12
G46H	0.38 ± 0.14

Variant	abundance fitness
G46P	-0.469 ± 0.13
G46M	-0.042 ± 0.12
G46S	-0.05 ± 0.06
G46V	-0.207 ± 0.069
G46A	-0.323 ± 0.095
G46I	-0.689 ± 0.2
G46K	-0.375 ± 0.13
G46F	-0.464 ± 0.31
G46C	0.022 ± 0.093
G46L	-0.268 ± 0.071
G46W	-0.553 ± 0.17
G46T	-0.037 ± 0.059
G46R	-0.105 ± 0.05
G46D	-0.343 ± 0.15
K47Q	0.539 ± 0.26
K47R	-0.293 ± 0.35
K47Y	0.095 ± 0.15
K47C	-0.003 ± 0.25
K47H	-0.156 ± 0.48
K47T	-0.774 ± 0.48
K47E	0.284 ± 0.2
K47D	-0.532 ± 0.43
K47M	0.312 ± 0.15
K47N	-0.751 ± 0.36
L42Q	0.115 ± 0.064
L42E	0.096 ± 0.079

Variant	abundance fitness
L42P	-0.347 ± 0.1
L42G	-0.183 ± 0.057
L42W	-0.251 ± 0.068
L42A	0.131 ± 0.052
L42T	-0.198 ± 0.076
L42R	-0.094 ± 0.044
L42N	-0.288 ± 0.24
L42F	-0.535 ± 0.14
L42M	-0.09 ± 0.1
L42C	0.013 ± 0.062
L42H	-0.618 ± 0.28
L42I	-0.291 ± 0.17
L42K	0.221 ± 0.12
L42V	-0.001 ± 0.045
L42Y	-0.058 ± 0.14
L42D	0.085 ± 0.051
L42S	-0.247 ± 0.081
V40D	-0.195 ± 0.081
V40H	-1.01 ± 0.4
V40P	-0.314 ± 0.12
V40C	-0.183 ± 0.21
V40K	-0.099 ± 0.11
V40A	-0.338 ± 0.073
V40T	-0.706 ± 0.14
V40S	-0.381 ± 0.088
V40Q	-0.252 ± 0.12

Variant	abundance fitness
V40R	-0.439 ± 0.067
V40Y	-0.295 ± 0.087
V40G	-0.545 ± 0.059
V40I	-0.411 ± 0.082
V40F	-0.592 ± 0.16
T45F	-0.147 ± 0.25
T45M	-0.211 ± 0.088
T45S	0.167 ± 0.052
T45W	-0.276 ± 0.075
T45K	-0.379 ± 0.11
T45I	-0.428 ± 0.15
T45G	0.166 ± 0.057
T45N	0.096 ± 0.12
T45V	-0.156 ± 0.053
T45R	-0.023 ± 0.058
T45L	-0.146 ± 0.09
T45P	-0.333 ± 0.11
T45C	-0.217 ± 0.085
T45D	0.07 ± 0.11
T45H	-0.189 ± 0.13
T45Q	-0.209 ± 0.14
K33S	-0.305 ± 0.084
K33Y	-0.401 ± 0.14
K33W	-0.762 ± 0.16
K33T	-0.04 ± 0.084
K33V	-0.291 ± 0.054

Variant	abundance fitness
A36K	-0.563 ± 0.17
A36P	-0.908 ± 0.31
A36R	-0.723 ± 0.089
A36M	-0.41 ± 0.073
A36S	-0.512 ± 0.12
A36W	-1.02 ± 0.12
A36G	-0.513 ± 0.051
A36E	-0.317 ± 0.093
A36I	-0.947 ± 0.078
A36N	-0.428 ± 0.18
A36L	-0.756 ± 0.093
A36H	-0.562 ± 0.14
A36C	-0.339 ± 0.11
A36T	-0.669 ± 0.15
A36D	-0.262 ± 0.088
A36V	-0.823 ± 0.057
Q41Y	-0.639 ± 0.17
Q41P	-0.2 ± 0.11
Q41G	-0.227 ± 0.075
Q41S	0.2 ± 0.056
Q41D	-0.085 ± 0.1
Q41L	-0.353 ± 0.058
Q41E	0.193 ± 0.07
Q41I	-0.648 ± 0.12
Q41M	-0.181 ± 0.066
Q41H	-0.452 ± 0.18

Variant	abundance fitness
Q41W	-0.395 ± 0.056
Q41C	-0.855 ± 0.19
Q41R	0.214 ± 0.061
Q41V	-0.287 ± 0.078
Q41N	-0.159 ± 0.12
K38N	-0.258 ± 0.13
K38R	0.042 ± 0.076
K38P	-0.33 ± 0.071
K38S	0.007 ± 0.085
K38W	-0.951 ± 0.12
K38L	-0.775 ± 0.058
K38V	-0.391 ± 0.089
K38F	-0.781 ± 0.11
K38H	-0.149 ± 0.12
K38T	-0.643 ± 0.097
K38D	-0.577 ± 0.23
K38M	-0.251 ± 0.088
K38A	-0.105 ± 0.065
K38C	-0.453 ± 0.087
K38I	-0.604 ± 0.079
K38G	-0.354 ± 0.089

Variants of: B2
Assay: as above
Conditions: Homo sapiens

Variant	abundance fitness
H5K	0.023 ± 0.042
H5M	-0.223 ± 0.043
H5I	-0.02 ± 0.067
H5Q	-0.028 ± 0.049
H5N	0.117 ± 0.064
H5W	-0.214 ± 0.043
H5T	-0.065 ± 0.038
H5F	0.067 ± 0.053
H5Y	-0.058 ± 0.048
H5L	-0.223 ± 0.041
H5V	-0.5 ± 0.041
H5R	-0.089 ± 0.041
H5C	-0.319 ± 0.094
H5G	-0.246 ± 0.043
H5S	-0.197 ± 0.047
H5D	-0.177 ± 0.076
H5E	-0.476 ± 0.069
H5A	-0.26 ± 0.042
M6H	-0.279 ± 0.19
M6G	-0.09 ± 0.066
M6L	-0.121 ± 0.061
M6F	0.084 ± 0.092
M6A	0.059 ± 0.074
M6N	0.135 ± 0.094
M6I	0.012 ± 0.13
M6D	-0.228 ± 0.095
M6C	-0.069 ± 0.065

Variant	abundance fitness
M6E	-0.14 ± 0.088
M6V	-0.077 ± 0.071
M6Y	-0.401 ± 0.099
M6W	-0.174 ± 0.076
M6T	0.136 ± 0.096
M6K	0.172 ± 0.08
M6S	-0.233 ± 0.081
M6R	-0.045 ± 0.056
M6P	-0.03 ± 0.09
E2H	-0.261 ± 0.13
E2V	-0.125 ± 0.081
E2T	0.011 ± 0.12
E2P	-0.228 ± 0.088
E2S	-0.062 ± 0.12
E2W	-0.314 ± 0.13
E2M	-0.669 ± 0.4
E2R	-0.042 ± 0.085
E2D	-0.565 ± 0.19
E2C	-0.398 ± 0.14
E2Q	-0.224 ± 0.14
E2A	-0.194 ± 0.091
E2K	-0.157 ± 0.14
E2I	0.392 ± 0.13
E2L	-0.038 ± 0.062
E2G	-0.131 ± 0.054
D3R	0.14 ± 0.04
D3E	0.136 ± 0.082

Variant	abundance fitness
D3T	0.205 ± 0.05
D3V	0.114 ± 0.054
D3Y	0.189 ± 0.065
D3N	0.168 ± 0.069
D3A	0.028 ± 0.06
D3C	-0.763 ± 0.065
D3G	0.105 ± 0.045
D3S	0.155 ± 0.044
D3F	0.357 ± 0.045
D3I	0.36 ± 0.07
D3H	-0.015 ± 0.046
D3Q	0.105 ± 0.047
E7P	-0.368 ± 0.07
E7I	-0.123 ± 0.074
E7M	-0.378 ± 0.11
E7G	-0.079 ± 0.052
E7N	-0.07 ± 0.12
E7H	-0.278 ± 0.11
E7K	-0.316 ± 0.094
E7A	-0.031 ± 0.083
E7C	0.095 ± 0.13
E7F	-0.224 ± 0.17
E7D	0.031 ± 0.085
E7L	-0.131 ± 0.065
D4S	-0.081 ± 0.041
D4T	0.216 ± 0.043
D4M	0.156 ± 0.043

Variant	abundance fitness
D4E	-0.131 ± 0.043
D4P	0.024 ± 0.041
D4K	0.184 ± 0.047
D4F	0.263 ± 0.047
D4H	0.17 ± 0.044
D4V	-0.14 ± 0.042
D4I	0.184 ± 0.063
D4A	-0.186 ± 0.041
D4L	0.11 ± 0.042
D4Y	0.252 ± 0.077
D4N	0.288 ± 0.043
D4R	0.048 ± 0.041
D4G	-0.425 ± 0.045
D4C	0.203 ± 0.066
D4W	0.005 ± 0.047
E1G	-0.304 ± 0.044
E1P	-0.803 ± 0.27
E1C	-0.893 ± 0.47
E1A	-0.518 ± 0.1
E1D	-0.455 ± 0.085
E1R	-0.554 ± 0.16
E1N	0.264 ± 0.15
E1K	0.044 ± 0.13
E1I	0.425 ± 0.27

Source: the Human Domainome abundance scans (Beltran et al. 2025)
